Experimental findings from paper PMC8750214 are described below.

The nature of data set [1]: immunoblot of total 4-1BB, Jurkat. The conditions noted are these: glycan lost; control: wild type. In general terms: Immunoblotting shows a protein as a band on a membrane.
Data set [2] in a line: flow cytometry of surface 4-1BB, Jurkat. The conditions noted are these: glycan lost; control: wild type. (In flow cytometry, cells or beads pass a laser one at a time.)

With 4-1BB (CD137/TNFRSF9): N138Q, the expression_or_secretion result in data set [1] is given as “no change”. Also, the localisation_or_trafficking result in data set [2] is on record as “decreases”. With 4-1BB (CD137/TNFRSF9): N149Q, in data set [2], the localisation_or_trafficking result is given as “no change”.
